Results on one molecule are retold here after patent publication US6406886.

What all share (experiment): cell-based or functional assay
Assay [1] addresses human RhoA (1st to 193 residues) GST fusion protein (human) (UniProt P61586).
Assay [2] deals with Ran.
Assay [3] addresses human Rap1A (Glu63) (1st to 184th residues) (human) (UniProt P62834).
Assay [4] addresses yeast Rsr1 (1st to 272nd residues) (yeast) (UniProt P13856).
Assay [5] deals with Rac1.
Assay [6] deals with human Ha-Ras (1st to 189th residues) (human) (UniProt P01112).
Sequence of human Ha-Ras (1st to 189th residues) (human) (P01112 whole entry, form in doubt): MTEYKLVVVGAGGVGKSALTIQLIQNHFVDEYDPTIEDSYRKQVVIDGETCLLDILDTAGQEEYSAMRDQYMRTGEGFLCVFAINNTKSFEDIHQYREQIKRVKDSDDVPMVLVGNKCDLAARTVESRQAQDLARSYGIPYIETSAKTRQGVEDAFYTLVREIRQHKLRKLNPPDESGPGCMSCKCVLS

Sequence of human Rap1A (Glu63) (1st to 184th residues) (human) (P62834 whole entry): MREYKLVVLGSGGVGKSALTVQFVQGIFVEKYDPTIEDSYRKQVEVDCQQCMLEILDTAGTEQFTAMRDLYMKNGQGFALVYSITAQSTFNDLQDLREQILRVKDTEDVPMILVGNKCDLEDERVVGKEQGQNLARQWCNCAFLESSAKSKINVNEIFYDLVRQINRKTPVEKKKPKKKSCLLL
Sequence of yeast Rsr1 (1st to 272nd residues) (yeast) (P13856 whole entry, form in doubt): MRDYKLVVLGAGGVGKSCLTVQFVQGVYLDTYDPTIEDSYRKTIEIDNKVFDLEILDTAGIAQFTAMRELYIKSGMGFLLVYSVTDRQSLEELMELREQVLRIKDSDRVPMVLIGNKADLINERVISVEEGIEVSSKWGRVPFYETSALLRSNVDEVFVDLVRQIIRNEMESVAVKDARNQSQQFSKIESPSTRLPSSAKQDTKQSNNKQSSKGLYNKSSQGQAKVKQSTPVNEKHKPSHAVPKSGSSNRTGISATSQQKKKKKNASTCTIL
Sequence of human RhoA (1st to 193 residues) GST fusion protein (human) (P61586 whole entry, form in doubt, the tested form may be a part): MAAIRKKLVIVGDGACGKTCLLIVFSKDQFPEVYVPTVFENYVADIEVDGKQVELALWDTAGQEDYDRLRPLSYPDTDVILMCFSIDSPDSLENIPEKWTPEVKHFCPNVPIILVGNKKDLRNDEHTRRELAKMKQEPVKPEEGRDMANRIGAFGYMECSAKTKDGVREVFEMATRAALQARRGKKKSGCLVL

B1: Span-N/GST fusion protein (protein, not shown: a dimerising Fc or GST)
chain: MYNNQEAGAAFMQFLTLLGDVVRLKGFESYRAQLDTKTDSTGTHSLYTTYQDHEIMFHVSTMLPYTPNNQQQLLRKRHIGNDIVTIVFQEPGSKPFCPTTIRSHFQHVFLVVRAHAPCTPHTSYRVAVSRTQDTPAFGPALPEGGGPFAANADFRAFLLAKALNGEQAAGHARQFHAMATRTRQQYLQDL
For the molecule B1, the Stimulation (times) of GTPase activity in assay [1] turned out to be 0.6 times; in assay [3], 6 times; in assay [4], 16 times; in assay [5], 0 times; in assay [6], 0.3 times. The molecule further had an EC16 (µg/ml), activation of Ran GTPase in assay [2] of 25 µg/mL.
